Data: paper PMC9482650, “Quantitative fragmentomics allow affinity mapping of interactomes” (Nature Communications, 2022)

What was measured:
Assay in all cases: holdup assay
Set-up in all cases: key: below the threshold = too weak to quantify, mostly under pKd 3.1 to 4
Details in all cases: plain residues with an end cap or a label only (N-terminal biotin on a linker: ttds)
GRIP2_4, Q9C0E4 = target: GRIP2_4, Q9C0E4
HTRA1, Q92743 = target: HTRA1, Q92743
GRIP1_5, Q9Y3R0 = target: T1, GRIP1_5, Q9Y3R0
T1 sequence (Q9Y3R0 568-668, limits assumed, looked up): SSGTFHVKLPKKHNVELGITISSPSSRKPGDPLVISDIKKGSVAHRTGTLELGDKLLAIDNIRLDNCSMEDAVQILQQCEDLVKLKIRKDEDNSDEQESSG

LNX2_3, Q8N448 = target: T2, LNX2_3, Q8N448
T2 sequence (Q8N448 463-564, limits assumed, looked up): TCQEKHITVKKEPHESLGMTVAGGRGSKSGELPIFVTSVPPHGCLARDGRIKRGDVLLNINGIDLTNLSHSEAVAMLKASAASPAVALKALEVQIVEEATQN

Inadl_6, Q8NI35 = target: Inadl_6, Q8NI35
Sequence of Inadl_6, Q8NI35 (Q8NI35 1058-1167): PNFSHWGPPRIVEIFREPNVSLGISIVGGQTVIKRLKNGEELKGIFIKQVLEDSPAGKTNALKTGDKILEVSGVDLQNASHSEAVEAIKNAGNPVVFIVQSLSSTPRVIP

NHERF4_1, Q86UT5-2 = target: NHERF4_1, Q86UT5-2
Sequence of NHERF4_1, Q86UT5-2 (Q86UT5 other isoform, or with tags, fused parts or gaps): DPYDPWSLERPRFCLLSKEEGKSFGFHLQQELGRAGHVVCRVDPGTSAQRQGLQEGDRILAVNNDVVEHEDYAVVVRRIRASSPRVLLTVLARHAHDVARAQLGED

SNTB1, Q13884 = target: T3, SNTB1, Q13884
T3 sequence (Q13884 107-205, limits assumed, looked up): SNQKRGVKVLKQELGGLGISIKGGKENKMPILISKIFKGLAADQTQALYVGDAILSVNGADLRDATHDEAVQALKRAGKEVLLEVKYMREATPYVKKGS

TJP3_3, O95049 = target: T4, TJP3_3, O95049
T4 sequence (O95049 375-456, limits assumed, looked up): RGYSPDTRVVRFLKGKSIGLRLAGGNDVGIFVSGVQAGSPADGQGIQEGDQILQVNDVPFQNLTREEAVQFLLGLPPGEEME

APBA3_1, O96018 = target: T5, APBA3_1, O96018
T5 sequence (O96018 389-490, limits assumed, looked up): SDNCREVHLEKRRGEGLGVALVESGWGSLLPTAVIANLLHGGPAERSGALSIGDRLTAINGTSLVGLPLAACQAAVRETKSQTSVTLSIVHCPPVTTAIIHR

CARD11, Q9BXL7 = target: T6, CARD11, Q9BXL7
T6 sequence (Q9BXL7 662-765, limits assumed, looked up): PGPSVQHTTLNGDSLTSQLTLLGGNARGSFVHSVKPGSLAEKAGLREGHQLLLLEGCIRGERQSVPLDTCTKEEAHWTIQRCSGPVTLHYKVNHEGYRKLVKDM

DLG2_2, Q15700 = target: DLG2_2, Q15700
Sequence of DLG2_2, Q15700 (Q15700 189-283): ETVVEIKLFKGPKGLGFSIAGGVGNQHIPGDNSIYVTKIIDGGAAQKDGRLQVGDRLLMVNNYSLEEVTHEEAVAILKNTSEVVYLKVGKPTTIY

LRRC7, Q96NW7 = target: T7, LRRC7, Q96NW7
T7 sequence (Q96NW7 1440-1537, limits assumed, looked up): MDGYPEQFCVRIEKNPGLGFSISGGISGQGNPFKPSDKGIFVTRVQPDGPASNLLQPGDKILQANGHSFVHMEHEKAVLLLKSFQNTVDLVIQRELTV

LAP2, Q96RT1 = target: LAP2, Q96RT1
Sequence of LAP2, Q96RT1 (Q96RT1 other isoform, or with tags, fused parts or gaps): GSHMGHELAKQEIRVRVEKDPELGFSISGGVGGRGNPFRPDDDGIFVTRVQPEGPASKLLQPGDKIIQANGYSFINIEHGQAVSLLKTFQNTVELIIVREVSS

HTRA2, O43464 = target: HTRA2, O43464
Sequence of HTRA2, O43464 (O43464 355-458): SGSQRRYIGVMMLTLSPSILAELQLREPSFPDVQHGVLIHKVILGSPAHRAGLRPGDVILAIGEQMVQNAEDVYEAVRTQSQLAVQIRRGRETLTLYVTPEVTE

MPP7, Q5T2T1 = target: T8, MPP7, Q5T2T1
T8 sequence (Q5T2T1 134-230, limits assumed, looked up): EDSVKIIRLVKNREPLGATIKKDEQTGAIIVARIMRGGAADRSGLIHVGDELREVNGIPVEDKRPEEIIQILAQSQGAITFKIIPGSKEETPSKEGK

LNX1_1, Q8TBB1 = target: LNX1_1, Q8TBB1
Sequence of LNX1_1, Q8TBB1 (Q8TBB1 261-371): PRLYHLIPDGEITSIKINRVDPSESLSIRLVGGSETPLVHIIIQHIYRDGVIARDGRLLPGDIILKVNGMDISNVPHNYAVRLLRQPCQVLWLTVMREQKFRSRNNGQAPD

MAGI3_2, Q5TCQ9 = target: MAGI3_2, Q5TCQ9
Sequence of MAGI3_2, Q5TCQ9 (Q5TCQ9 398-503): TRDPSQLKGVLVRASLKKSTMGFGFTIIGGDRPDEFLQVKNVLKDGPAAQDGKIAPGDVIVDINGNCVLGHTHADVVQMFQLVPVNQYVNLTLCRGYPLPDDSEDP

TJP1_3, Q07157 = target: TJP1_3, Q07157
Sequence of TJP1_3, Q07157 (Q07157 416-512): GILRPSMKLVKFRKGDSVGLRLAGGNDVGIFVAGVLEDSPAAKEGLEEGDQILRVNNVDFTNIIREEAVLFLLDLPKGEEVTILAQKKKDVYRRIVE

FRMPD3, Q5JV73 = target: FRMPD3, Q5JV73
Sequence of FRMPD3, Q5JV73 (Q5JV73 12-100): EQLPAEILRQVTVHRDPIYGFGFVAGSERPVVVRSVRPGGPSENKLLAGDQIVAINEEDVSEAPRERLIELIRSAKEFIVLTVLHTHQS

GRIP2_6, Q9C0E4 = target: GRIP2_6, Q9C0E4
Sequence of GRIP2_6, Q9C0E4 (Q9C0E4 648-740): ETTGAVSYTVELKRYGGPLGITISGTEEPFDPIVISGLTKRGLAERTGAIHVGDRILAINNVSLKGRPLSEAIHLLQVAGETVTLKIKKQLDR

LNX1_2, Q8TBB1 = target: LNX1_2, Q8TBB1
Sequence of LNX1_2, Q8TBB1 (Q8TBB1 371-470): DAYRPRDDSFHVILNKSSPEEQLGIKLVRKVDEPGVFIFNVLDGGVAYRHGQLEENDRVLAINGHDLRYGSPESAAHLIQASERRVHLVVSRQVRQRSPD

DLG4_3, P78352 = target: DLG4_3, P78352
Sequence of DLG4_3, P78352 (P78352 306-403): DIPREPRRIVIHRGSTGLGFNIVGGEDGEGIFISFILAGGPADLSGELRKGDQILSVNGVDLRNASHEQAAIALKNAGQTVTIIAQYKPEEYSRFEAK

PDZRN4_1, Q6ZMN7 = target: PDZRN4_1, Q6ZMN7
Sequence of PDZRN4_1, Q6ZMN7 (Q6ZMN7 213-318): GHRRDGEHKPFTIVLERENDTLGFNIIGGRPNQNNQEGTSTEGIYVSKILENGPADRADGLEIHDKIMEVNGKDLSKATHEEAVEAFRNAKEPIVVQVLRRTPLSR

DVL3, Q92997 = target: T9, DVL3, Q92997
T9 sequence (Q92997 244-331, limits assumed, looked up): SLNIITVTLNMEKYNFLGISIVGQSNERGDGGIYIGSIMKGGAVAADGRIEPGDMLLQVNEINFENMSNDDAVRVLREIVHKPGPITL

HTRA3, P83110 = target: T10, HTRA3, P83110
T10 sequence (P83110 354-453, limits assumed, looked up): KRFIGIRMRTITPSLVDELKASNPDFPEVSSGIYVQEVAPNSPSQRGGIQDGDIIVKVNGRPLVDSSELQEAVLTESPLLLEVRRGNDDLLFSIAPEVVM

GOPC, Q9HD26 = target: GOPC, Q9HD26
GORASP2, Q9H8Y8 = target: GORASP2, Q9H8Y8

Sequence of GRIP2_4, Q9C0E4 (Q9C0E4 446-548): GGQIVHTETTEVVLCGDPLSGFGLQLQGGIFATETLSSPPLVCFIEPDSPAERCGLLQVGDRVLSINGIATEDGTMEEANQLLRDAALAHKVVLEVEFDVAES
Sequence of HTRA1, Q92743 (Q92743 360-477): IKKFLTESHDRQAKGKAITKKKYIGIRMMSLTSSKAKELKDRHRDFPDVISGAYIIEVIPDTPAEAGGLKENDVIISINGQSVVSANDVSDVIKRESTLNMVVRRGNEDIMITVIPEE

B1: HPV31-E6, P17386 (peptide)
chain: SRRPRTETQV
- pKd (GRIP2_4, Q9C0E4): below the threshold
- pKd (HTRA1, Q92743): below the threshold
- pKd (GRIP1_5, Q9Y3R0): below the threshold
- pKd (LNX2_3, Q8N448): below the threshold
- pKd (Inadl_6, Q8NI35): below the threshold
- pKd (NHERF4_1, Q86UT5-2): below the threshold
- pKd (SNTB1, Q13884): 4.15
- pKd (TJP3_3, O95049): below the threshold
- pKd (APBA3_1, O96018): below the threshold
- pKd (CARD11, Q9BXL7): below the threshold
- pKd (DLG2_2, Q15700): 5.37
- pKd (LRRC7, Q96NW7): below the threshold
- pKd (LAP2, Q96RT1): 3.9
- pKd (HTRA2, O43464): below the threshold
- pKd (MPP7, Q5T2T1): below the threshold
- pKd (LNX1_1, Q8TBB1): below the threshold
- pKd (MAGI3_2, Q5TCQ9): 5.87
- pKd (TJP1_3, Q07157): below the threshold
- pKd (FRMPD3, Q5JV73): below the threshold
- pKd (GRIP2_6, Q9C0E4): below the threshold
- pKd (LNX1_2, Q8TBB1): below the threshold
- pKd (DLG4_3, P78352): 5.1
- pKd (PDZRN4_1, Q6ZMN7): 4.19
- pKd (DVL3, Q92997): below the threshold
- pKd (HTRA3, P83110): below the threshold
- pKd (GOPC, Q9HD26): below the threshold
- pKd (GORASP2, Q9H8Y8): 3.65

B2: TAGAP, Q8N103 (peptide)
chain: QFQYAKESYI
- pKd (GRIP2_4, Q9C0E4): below the threshold
- pKd (HTRA1, Q92743): 4.03
- pKd (GRIP1_5, Q9Y3R0): below the threshold
- pKd (LNX2_3, Q8N448): below the threshold
- pKd (Inadl_6, Q8NI35): 4.06
- pKd (NHERF4_1, Q86UT5-2): below the threshold
- pKd (SNTB1, Q13884): 4.92
- pKd (TJP3_3, O95049): below the threshold
- pKd (APBA3_1, O96018): below the threshold
- pKd (CARD11, Q9BXL7): below the threshold
- pKd (DLG2_2, Q15700): 4.16
- pKd (LRRC7, Q96NW7): below the threshold
- pKd (LAP2, Q96RT1): 3.48
- pKd (HTRA2, O43464): below the threshold
- pKd (MPP7, Q5T2T1): below the threshold
- pKd (LNX1_1, Q8TBB1): 3.66
- pKd (MAGI3_2, Q5TCQ9): 4.6
- pKd (TJP1_3, Q07157): below the threshold
- pKd (FRMPD3, Q5JV73): below the threshold
- pKd (GRIP2_6, Q9C0E4): below the threshold
- pKd (LNX1_2, Q8TBB1): below the threshold
- pKd (DLG4_3, P78352): 3.55
- pKd (PDZRN4_1, Q6ZMN7): 3.96
- pKd (DVL3, Q92997): below the threshold
- pKd (HTRA3, P83110): 3.76
- pKd (GOPC, Q9HD26): 3.95
- pKd (GORASP2, Q9H8Y8): 3.9
